# Test results taken from patent US20260250363A1.
# B1: Casirivimab (antibody)
# chain 1: QVQLVESGGGLVKPGGSLRLSCAASGFTFSDYYMSWIRQAPGKGLEWVSYITYSGSTIYYADSVKGRFTISRDNAKSSLYLQMNSLRAEDTAVYYCARDRGTTMVPFDYWGQGTLVTVSS
# chain 2: DIQMTQSPSSLSASVGDRVTITCQASQDITNYLNWYQQKPGKAPKLLIYAASNLETGVPSRFSGSGSGTDFTFTISGLQPEDIATYYCQQYDNLPLTFGGGTKVEIK
# Columns and labels:
# Details in all cases: remark: other sources report otherwise
# [1] = target: T1, SARS-CoV-2 AY.1 Spike Protein (R&D, Cat. #10922-CV) (SARS-CoV-2), P0DTC2; assay: direct ELISA on coated spike
# [2] = target: T2, SARS-CoV-2 C.37 Spike His Protein (R&D, Cat. #10887-CV) (SARS-CoV-2), P0DTC2; assay: direct ELISA on coated spike
# [3] = target: T3, SARS-CoV-2 Spike Protein, wild type (R&D, Cat. #10549-CV) (SARS-CoV-2), P0DTC2; assay: direct ELISA on coated spike
# [4] = target: T1, SARS-CoV-2 AY.1 Spike Protein (R&D, …); assay: BLI (ForteBio), mAb on AHC sensor, spike in solution
# [5] = target: T2, SARS-CoV-2 C.37 Spike His Protein (R&D, …); assay: as above
# [6] = target: T3, SARS-CoV-2 Spike Protein, wild type …; assay: as above
# [7] = target: T1, SARS-CoV-2 AY.1 Spike Protein (R&D, …); assay: competition ELISA: blocks biotin-ACE2 binding to coated spike
# [8] = target: T2, SARS-CoV-2 C.37 Spike His Protein (R&D, …); assay: as above
# [9] = target: T3, SARS-CoV-2 Spike Protein, wild type …; assay: as above
# [10] = target: T3, SARS-CoV-2 Spike Protein, wild type …; assay: as above; remark: listed apart in the source
# [11] = target: T2, SARS-CoV-2 C.37 Spike His Protein (R&D, …); assay: as above; remark: listed apart in the source
# [12] = target: T1, SARS-CoV-2 AY.1 Spike Protein (R&D, …); assay: as above; remark: listed apart in the source
binder,measurement,setting,value
B1,EC50,[1],41 pM
same,EC50,[2],50.7 pM
same,EC50,[3],55.7 pM
same,Kd,[4],1080 pM
same,Kd,[5],511 pM
same,Kd,[6],2850 pM
same,IC50,[7],646 pM
same,IC50,[8],1900 pM
same,IC50,[9],3730 pM
same,IC50,[10],2940 pM
same,IC50,[11],1380 pM
same,IC50,[12],341 pM
